Assays:
apoe_human APOE = apoe_human APOE (UniProt P02649)
amrp_human LRPAP1 [1] = molecular target: amrp_human LRPAP1 (UniProt P30533)
amrp_human LRPAP1 [2] = molecular target: amrp_human LRPAP1 (UniProt P30533); remark: listed apart in the source

Sequence of amrp_human LRPAP1 (P30533 whole entry): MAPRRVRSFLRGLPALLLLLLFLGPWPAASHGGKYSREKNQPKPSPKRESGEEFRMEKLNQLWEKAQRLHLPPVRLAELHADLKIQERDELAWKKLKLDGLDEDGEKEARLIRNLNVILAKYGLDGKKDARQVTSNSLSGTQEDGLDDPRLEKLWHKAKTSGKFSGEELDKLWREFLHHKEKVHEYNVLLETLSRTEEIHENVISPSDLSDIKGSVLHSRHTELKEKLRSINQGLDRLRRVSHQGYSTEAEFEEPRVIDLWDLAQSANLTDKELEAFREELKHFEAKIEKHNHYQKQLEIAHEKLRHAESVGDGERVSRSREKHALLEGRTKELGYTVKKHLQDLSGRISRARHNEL
Sequence of apoe_human APOE (P02649 whole entry): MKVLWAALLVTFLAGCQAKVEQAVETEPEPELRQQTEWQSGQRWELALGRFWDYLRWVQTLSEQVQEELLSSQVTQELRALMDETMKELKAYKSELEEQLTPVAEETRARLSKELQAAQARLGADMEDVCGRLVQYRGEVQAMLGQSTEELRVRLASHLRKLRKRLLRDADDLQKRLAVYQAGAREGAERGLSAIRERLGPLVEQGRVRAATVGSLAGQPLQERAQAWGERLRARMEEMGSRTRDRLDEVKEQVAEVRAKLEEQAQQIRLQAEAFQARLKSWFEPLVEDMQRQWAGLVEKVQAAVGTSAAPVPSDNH

Row | effect of a mutation on the interaction (apoe_human APOE) | effect of a mutation on the interaction (amrp_human LRPAP1 [1]) | effect of a mutation on the interaction (amrp_human LRPAP1 [2]) | Substance
1 | decreasing interaction strength | decreasing interaction strength |  | Prolow-density lipoprotein receptor-related protein 1 (Homo sapiens), Q07954 D2797A
2 |  |  | decreasing interaction strength | Prolow-density lipoprotein receptor-related protein 1 (Homo sapiens), Q07954 D2797A;D2840A
